{"source": "patent US6582899B1", "about": "“Methods for identifying agents that cause a lethal phenotype, and agents thereof” (Deltagen Proteomics, Inc., priority 2000, dated 2003)", "molecules": {"B1": {"name": "BID clone #1: N-terminal truncation of BID (BH3 Interacting Domain Death Agonist), encodes amino acids 33-195 (protein, UniProt P55957 33-195, looked up, fragment)", "chain": "FRRELDALGHELPVLAPQWEGYDELQTDGNRSSHSRLGRIEADSESQEDIIRNIARHLAQVGDSMDRSIPPGLVNGLALQLRNTSRSEEDRNRDLATALEQLLQAYPRDMEKEKTMLVLALLLAKKVASHTPSLLRDVFHTTVNFINQNLRTYVRSLARNGMD"}}, "key": {"[1]": {"system": "HT29 colon cancer cells", "assay": "HT29 floater assay (negative selection)", "format": "cell-based", "conditions": "individual clone reintroduced into HT29 cells", "procedure": "HT29 cells were tested for feasibility in the floater cell assay as follows. Briefly, six flasks were inoculated with 6.25×10^5 HT29 cells/flask on Day 0. On Day 1, after the cells had been allowed to adhere to the solid support, two of these flasks were infected with retroviral supernatant containing the retroviral vector pVT324, which includes a selectable drug resistant marker (e.g. neomycin), and which constitutively expresses a green fluorescent protein. Of the remaining four flasks, two were mock infected (i.e. exposed to all of the same reagents/conditions as flasks 1 and 2, minus the retrovirus, see “Example 3C”) and two were left undisturbed. On Day 2, this procedure was repeated (i.e. a double infection). On Day 3 (and subsequently on Day 5) one flask was selected from each of the three groups and processed by separating and counting the floater and adherent cell populations. In the case of the floater cell population, the media was collected, centrifuged at 200×g for 10 minutes, and resuspended in PBS prior to removing a sample for counting on a hemocytometer. For the adherent cell population, cells were first removed from the flask by trypsinization, centrifuged, and then processed for analysis in a fashion analogous to the floater cells. To determine the inherent background level of floater cells present in the population, the ratio of the number of floater cells to the total number of cells (adherent cells+floater cells) was analyzed on both the Day 3 and Day 5 flasks that had not been manipulated. These numbers were compared with the analogous numbers taken from infected and mock-infected flasks to determine whether the retrovirus or transfection procedures altered background floater rates. To determine the susceptibility of HT29 cells to retroviral infection, the fraction of cells that expressed GFP in pVT324 infected flasks was calculated using flow cytometry.\nTwenty T175 flasks were seeded with 2.2×10^6 HT29 cells/flask in McCoy's 5A media (Gibco BRL) modified with 10% FBS. On Day 1, each flask was infected (4 μg/ml polybrene, 50% volume) with a retroviral supernatant containing a commercially obtained brain cDNA library (“Example Three” above). On Day 2 the media was changed. On Day 3 both the floater and adherent cell populations were collected (separately) from the twenty flasks. Approximately 652,500 floaters were isolated from a theoretical background of 4.2×10^7 adherents (1.5% floaters) and frozen down for future studies. […] Additional floater cells were then collected Day 5, where the collection and counting procedures were repeated and some 7.8×10^6 floaters and 7.6×10^8 adherents were counted (1.03% floaters). […] The floater populations of Days 3 and 5 were then combined and readied for a genomic DNA prep using a QIAamp kit (Qiagen) following standard procedures. Briefly, some 9×10^6 floater cells in PBS were lysed to release gDNA. This material was passed over a QIAamp column that was then washed several times to remove protein and RNA contaminants. Twenty-seven micrograms of genomic DNA were then eluted from the columns with dH2O and treated with RNAse A to eliminate any RNA contamination. This gDNA was then subjected to PCR procedures to amplify the library sequences encoded therein. […]"}, "[2]": {"system": "HuVECs (Human Umbilical Vein Endothelial Cells)", "assay": "Cell viability of HuVECs after introduction of clone", "format": "cell-based", "conditions": "16 hour time point", "text": "In addition to cycling these library sequences (obtained as described above) through an additional round of negative selections, 50 clones were taken from each of the Cycle 5, day five pools for sequence analysis. […] Both of the BID clones obtained from these negative selections encode N-terminal truncations of the native protein (BID Clone #1 encodes amino acids 33-195, BID Clone #2 encodes amino acids 76-195, See FIG. 9). BID clone #1 was reintroduced into fresh, naive HT29 cells and floater rates were compared with cells that had been mock infected or infected with the control vector, pVT324. […] In a similar experiment, BID clone #1 was introduced into HuVECs (Human Umbilical Vein Endothelial Cells, Clonetics/Biowhittaker) and cell viability was followed over the course of 16 hours. While control cells gave a background of 1% cell death at the 16 hour time point, 80% of the cells in the BID clone #1-infected culture died during the same period of time."}}}
{"molecule": "B1", "values": [{"measurement": "floater rate", "setting": "[1]", "result": "roughly 18%"}, {"measurement": "cells that died", "setting": "[2]", "result": 80, "unit": "%"}]}
